Results taken from patent EP4289863A9 (Shanghai Huaota Biopharmaceutical Co., Ltd., dated 2024).
Numbering of substitutions follows the chain as printed. Numbers in names are those of the source.

B1: anti-IL-36R chimeric antibody 900497 (antibody, V domains shown)
VH: QVQLQQTGSVLVRPGTSVKLSCKASGYTFTSSWMHWAKQRPGQGLEWIGEIHPNSAKTNYNEKFKGKATLTVDTFSSTAYVDLSSLASEDSAVYYCARVDYGKPWFAYWGQGTLVTVSA
VL: QIVLTQSPTIMSASPGERVTMTCSASSSVSSSYLHWYQQKPGSSPKLWIYSTSNLASGVPARFSGSGSGTSYSLTINSMEAEDAATYYCQQFQSSPLTFGAGTKLGLK
notes: Human-mouse chimera: human IgG1 heavy constant region with L234A and L235A (Eu numbering), human kappa light constant region
B2: humanized anti-IL-36R antibody 900527 (antibody, V domains shown)
VH: QVQLVQSGAEVKKPGASVKVSCKASGYTFTSSWMHWAKQAPGQGLEWIGEIHPNSAKTNYNQKFQGRVTMTRDTSISTAYMELSRLRSDDTAVYYCARVDYGKPWFAYWGQGTLVTVSS
VL: QIVLTQSPGTLSLSPGERATLSCRASSSVSSSYLHWYQQKPGQAPRLWIYSTSSRATGIPDRFSGSGSGTDFTLTISRLEPEDFATYYCQQFQSSPLTFGQGTKLEIK
notes: IgG1 (vector with L234A, L235A) and human kappa
B3: humanized anti-IL-36R antibody 900534 (antibody, V domains shown)
VH: B2 VH
VL: B2 VL with W48L
notes: as for B2
B4: humanized anti-IL-36R antibody 900513 (antibody, V domains shown)
VH: B2 VH
VL: B2 VL with Q1E, R24S, S54N
notes: as for B2
B5: IL17A-IL36R bispecific antibody 700007 (bispecific antibody)
heavy (part 1 of 2): QVQLVQSGSELKKPGASVKVSCKASEYIFTNYGMNWVKQAPGQGFEWMGWIDTNTGEPTYAQGFTGRFVFSLDTSVSTAYLQISSLKAEDTATYYCANYGWGYFDYWGQGTTVTVSS
heavy (part 2 of 2): GGGGSGGGGSGGGGSGGGGSQIVLTQSPGTLSLSPGERATLSCRASSSVSSSYLHWYQQKPGQAPRLWIYSTSSRATGIPDRFSGSGSGTDFTLTISRLEPEDFATYYCQQFQSSPLTFGQGTKLEIKGGGGSGGGGSGGGGSGGGGSQVQLVQSGAEVKKPGASVKVSCKASGYTFTSSWMHWAKQAPGQGLEWIGEIHPNSAKTNYNQKFQGRVTMTRDTSISTAYMELSRLRSDDTAVYYCARVDYGKPWFAYWGQGTLVTVSS
light: DVVMTQTPPSLPVNPGEPASISCRSSQSLVHSNGYTYLHWYLQKPGQSPQLLIYKVSNHLSGVPDRFSGSGSGTDFTLKISWVEAEDVGVYFCSQSTHVPYTFGGGTKLEIKRTVAAPSVFIFPPSDEQLKSGTASVVCLLNNFYPREAKVQWKVDNALQSGNSQESVTEQDSKDSTYSLSSTLTLSKADYEKHKVYACEVTHQGLSSPVTKSFNRGEC
notes: not shown: heavy constant region CH1-CH2-CH3
B6: IL17A-IL36R bispecific antibody 700009 (bispecific antibody)
heavy (part 1 of 2): B5 heavy (part 1 of 2)
heavy (part 2 of 2): GGGGSGGGGSGGGGSGGGGSQIVLTQSPGTLSLSPGERATLSCRASSSVSSSYLHWYQQKPGQAPRLWIYSTSSRATGIPDRFSGSGSGTDFTLTISRLEPEDFATYYCQQFQSSPLTFGQGTKLEIKGGGGSGGGGSGGGGSGGGGSGGGGSQVQLVQSGAEVKKPGASVKVSCKASGYTFTSSWMHWAKQAPGQGLEWIGEIHPNSAKTNYNQKFQGRVTMTRDTSISTAYMELSRLRSDDTAVYYCARVDYGKPWFAYWGQGTLVTVSS
light: B5 light
notes: as for B5

Assays:
[1] = biological target: T1, human IL-36R (human, UniProt Q9HB29 20-575); assay: cell-based or functional assay
T1 sequence (looked up): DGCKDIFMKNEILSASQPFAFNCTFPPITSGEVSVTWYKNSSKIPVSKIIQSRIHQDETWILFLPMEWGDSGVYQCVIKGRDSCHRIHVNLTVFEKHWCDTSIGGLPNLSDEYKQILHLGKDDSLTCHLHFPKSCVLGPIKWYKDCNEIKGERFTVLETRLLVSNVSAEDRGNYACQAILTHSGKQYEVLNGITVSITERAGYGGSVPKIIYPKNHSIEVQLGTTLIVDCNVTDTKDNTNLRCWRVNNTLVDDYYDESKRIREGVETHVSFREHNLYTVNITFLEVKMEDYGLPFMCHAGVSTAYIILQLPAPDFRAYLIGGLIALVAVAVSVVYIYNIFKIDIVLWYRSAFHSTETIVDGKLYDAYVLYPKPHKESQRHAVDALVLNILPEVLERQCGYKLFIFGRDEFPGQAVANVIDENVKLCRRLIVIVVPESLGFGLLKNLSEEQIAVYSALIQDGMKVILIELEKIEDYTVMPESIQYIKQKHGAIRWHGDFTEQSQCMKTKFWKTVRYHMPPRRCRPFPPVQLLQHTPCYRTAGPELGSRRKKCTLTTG

[2] = biological target: T1, human IL-36R; assay: cell-based or functional assay; remark: listed apart in the source
[3] = biological target: T2, His-tagged human IL-1 Rrp2/IL-1R6 protein (human, UniProt Q9HB29 20-335, limits assumed); assay: SPR Biacore 8K, His-tagged antigen captured by anti-His antibody, antibody as analyte, 1:1 model
T2 construct: Bought protein; also called His-tagged human IL-1 Rrp2/IL-IR6 protein; not shown: His tag
T2 sequence (looked up): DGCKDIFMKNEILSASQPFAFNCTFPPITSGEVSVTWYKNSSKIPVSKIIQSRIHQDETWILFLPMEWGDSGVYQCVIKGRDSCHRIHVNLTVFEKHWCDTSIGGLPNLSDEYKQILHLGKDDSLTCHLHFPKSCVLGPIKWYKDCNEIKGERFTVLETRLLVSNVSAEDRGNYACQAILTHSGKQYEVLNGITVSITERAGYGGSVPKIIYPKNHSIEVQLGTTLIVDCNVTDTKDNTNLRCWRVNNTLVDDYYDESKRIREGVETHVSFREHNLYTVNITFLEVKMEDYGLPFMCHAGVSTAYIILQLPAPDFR

[4] = biological target: T1, human IL-36R; assay: cell-based or functional assay; remark: listed apart in the source
[5] = biological target: T1, human IL-36R; assay: cell-based or functional assay; remark: listed apart in the source
[6] = biological target: T1, human IL-36R; assay: flow cytometry on CHO-K1-huIL-36R-5E10/2F10 cells
[7] = biological target: T3, IL36R (analyte of Table 17) (Homo sapiens (Human), UniProt Q9HB29 20-335); assay: SPR Biacore 8K, antibody captured on anti-human chip, antigen as analyte, 1:1 model
T3 sequence: T2 sequence (looked up)

[8] = biological target: T1, human IL-36R; assay: flow cytometry on CHO-K1 cells expressing human IL-36R
[9] = biological target: T1, human IL-36R; assay: cell-based or functional assay; remark: listed apart in the source
[10] = biological target: T1, human IL-36R; assay: cell-based or functional assay; remark: listed apart in the source
[11] = biological target: T4, monkey IL-36R (monkey); assay: flow cytometry on CHO-K1 cells expressing monkey IL-36R
T4 construct: whole, on cells

[12] = biological target: T5, IL17A (analyte of Table 17) (Homo sapiens (Human), UniProt Q16552 24-155); assay: SPR Biacore 8K, antibody captured on anti-human chip, antigen as analyte, 1:1 model
T5 sequence: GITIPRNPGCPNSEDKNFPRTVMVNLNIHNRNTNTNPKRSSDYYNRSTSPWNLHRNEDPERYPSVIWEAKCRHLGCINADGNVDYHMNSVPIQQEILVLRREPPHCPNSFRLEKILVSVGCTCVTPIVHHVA

[13] = biological target: T6, Human IL-17A (human, UniProt Q16552 24-155); assay: cell-based or functional assay
T6 sequence (looked up): T5 sequence

HuIL-6 detected in HIF under IL-36α stimulation IC50 [1]	IC50 of GM-CSF release, NCI/ADR-RES cells stimulated with IL-36α [2]	IC50 of GM-CSF release, NCI/ADR-RES cells stimulated with IL-36β [2]	IC50 of GM-CSF release, NCI/ADR-RES cells stimulated with IL-36γ [2]	IC50 of IL-6 release, NCI/ADR-RES cells stimulated with IL-36α [2]	IC50 of IL-6 release, NCI/ADR-RES cells stimulated with IL-36β [2]	IC50 of IL-6 release, NCI/ADR-RES cells stimulated with IL-36γ [2]	IC50 of IL-8 release, NCI/ADR-RES cells stimulated with IL-36α [2]	IC50 of IL-8 release, NCI/ADR-RES cells stimulated with IL-36β [2]	IC50 of IL-8 release, NCI/ADR-RES cells stimulated with IL-36γ [2]	IC50 of pNF-κB, NCI/ADR-RES cells stimulated with IL-36β [2]	Kd [3]	koff [3]	kon [3]	HuIL-6 detected in HIF under IL-36β stimulation IC50 [4]	pNFκB detected in HIF under IL-36β stimulation IC50 [5]	EC50 [6]	EC50 of inhibition of IL-6 content, NCI/ADR-RES cells stimulated with IL-36β [10]	Kd [12]	koff [12]	further results	Binder
0.146 µg/mL	0.0328 µg/mL	0.0224 µg/mL	0.0288 µg/mL	0.0332 µg/mL	0.0204 µg/mL	0.0198 µg/mL	0.0439 µg/mL	0.0292 µg/mL	0.0284 µg/mL	115 ng/mL	0.0254 nM	1.68e-05 s⁻¹	660000 M⁻¹ s⁻¹	0.0837 µg/mL	0.1 µg/mL	–	–	–	–	–	B1
0.0479 µg/mL	0.022 µg/mL	0.0174 µg/mL	0.0198 µg/mL	0.015 µg/mL	0.0139 µg/mL	0.0162 µg/mL	0.0315 µg/mL	0.0223 µg/mL	0.0198 µg/mL	71.4 ng/mL	0.0452 nM	4.37e-05 s⁻¹	967000 M⁻¹ s⁻¹	0.0546 µg/mL	0.105 µg/mL	0.32 nM	0.069 nM	–	–	Kd [7]: 0.141 nM; koff [7]: 0.00015 s⁻¹; kon [7]: 1.07e+06 M⁻¹ s⁻¹; EC50 [8]: 0.062 µg/mL; HuIL-6 detected in NCI/ADR-RES under IL-36β stimulation IC50 [9]: 0.00887 µg/mL; EC50 [11]: 0.0595 µg/mL	B2
–	0.0202 µg/mL	0.0186 µg/mL	0.021 µg/mL	0.0216 µg/mL	0.0168 µg/mL	0.0176 µg/mL	0.0304 µg/mL	0.022 µg/mL	0.018 µg/mL	64.9 ng/mL	0.0579 nM	5.1e-05 s⁻¹	881000 M⁻¹ s⁻¹	–	–	–	–	–	–	–	B3
–	0.0206 µg/mL	0.0184 µg/mL	0.0179 µg/mL	0.0124 µg/mL	0.0223 µg/mL	0.0121 µg/mL	0.0398 µg/mL	0.0221 µg/mL	0.018 µg/mL	105 ng/mL	0.0148 nM	1.34e-05 s⁻¹	904000 M⁻¹ s⁻¹	–	–	–	–	–	–	–	B4
–	–	–	–	–	–	–	–	–	–	–	–	–	–	–	–	0.693 nM	0.48 nM	0.00613 nM	4.33e-05 s⁻¹	kon [12]: 7.06e+06 M⁻¹ s⁻¹; EC50 of inhibition of IL-6 secretion, HT-1080 cells stimulated with h IL17-A and h TNF-α [13]: 0.0766 nM	B5
–	–	–	–	–	–	–	–	–	–	–	–	–	–	–	–	0.799 nM	0.65 nM	0.00796 nM	5.71e-05 s⁻¹	kon [12]: 7.17e+06 M⁻¹ s⁻¹; EC50 of inhibition of IL-6 secretion, HT-1080 cells stimulated with h IL17-A and h TNF-α [13]: 0.0999 nM	B6
